Source: PMC4943950, “T4 Phage Tail Adhesin Gp12 Counteracts LPS-Induced Inflammation In Vivo” (Frontiers in Microbiology, 2016)

Biological target: the molecule itself
Assay: SDS-PAGE of the non-heated sample (SDS-resistant oligomer); purified gp12 final preparation, not heated before SDS-PAGE, ambient temperature; trimer band at 172.5 kDa

B1: T4 phage short tail fiber protein (tail adhesin) gp12, recombinant, His-tagged (natural protein, bacteriophage T4, UniProt P10930 1-527, looked up)
chain: MSNNTYQHVSNESRYVKFDPTDTNFPPEITDVQAAIAAISPAGVNGVPDASSTTKGILFIPTEQEVIDGTNNTKAVTPATLATRLSYPNATETVYGLTRYSTNDEAIAGVNNESSITPAKFTVALNNAFETRVSTESSNGVIKISSLPQALAGADDTTAMTPLKTQQLAIKLIAQIAPSETTATESDQGVVQLATVAQVRQGTLREGYAISPYTFMNSSSTEEYKGVIKLGTQSEVNSNNASVAVTGATLNGRGSTTSMRGVVKLTTTAGSQSGGDASSALAWNADVIQQRGGQIIYGTLRIEDTFTIANGGANITGTVRMTGGYIQGNRIVTQNEIDRTIPVGAIMMWAADSLPSDAWRFCHGGTVSASDCPLYASRIGTRYGGNPSNPGLPDMRGLFVRGSGRGSHLTNPNVNGNDQFGKPRLGVGCTGGYVGEVQIQQMSYHKHAGGFGEHDDLGAFGNTRRSNFVGTRKGLDWDNRSYFTNDGYEIDPESQRNSKYTLNRPELIGNETRPWNISLNYIIKVKE
notes: No step that removes the His-Tag is described; also called phage adhesin
- stoichiometry N: 3
